The values that follow come from patent publication US20090148461A1 (Kyowa Kirin, published 2009).

The target in this experiment is T1, full length human FGF23 protein (amino acid 25 to amino acid 251 of SEQ ID NO: 4) (human, UniProt Q9GZV9 25-251).
T1 construct: also called full length FGF23; human full length FGF23 protein
T1 sequence: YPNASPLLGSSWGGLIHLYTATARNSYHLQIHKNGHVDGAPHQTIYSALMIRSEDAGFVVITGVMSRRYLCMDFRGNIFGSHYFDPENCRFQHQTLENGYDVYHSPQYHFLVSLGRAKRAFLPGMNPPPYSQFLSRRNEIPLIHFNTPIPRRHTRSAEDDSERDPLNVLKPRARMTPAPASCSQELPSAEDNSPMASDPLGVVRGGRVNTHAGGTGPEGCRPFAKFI
Nature of the experiment: ELISA screening of hybridoma supernatants.

B1: C10 antibody (anti-FGF23 human monoclonal antibody produced by hybridoma C10, FERM BP-10772) (antibody, human IgG1, V domains shown)
VH: QVQLVQSGAEVKKPGASVKVSCKASGYTFTNHYMHWVRQAPGQGLEWMGIINPISGSTSNAQKFQGRVTMTRDTSTSTVYMELSSLRSEDTAVYYCARDIVDAFDFWGQGTMVTVSS
VL: AIQLTQSPSSLSASVGDRVTITCRASQGISSALVWYQQKPGKAPKLLIYDASSLESGVPSRFSGSGSGTDFTLTISSLQPEDFATYYCQQFNDYFTFGPGTKVDIK
notes: also called recombinant C10 antibody
For B1, the binding result is listed as “binds”.
